Drawing on the supplement of paper PMC9732359, this text covers protein stability index for 26 sequences.

A short description of the data set: protein stability index of a GFP-peptide fusion (yeast GPS) (PSI 1-4); higher = more stable; sorted into four equal gates, so the index is relative within each strain. Summed up: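 Plasmids isolated from each sorting gate were PCR-amplified and Illumina-sequenced, and barcodes assigned the reads to strains. The gates, four of equal size, were set by GFP/Cherry fluorescence ratio on mid-log cultures in leucine-free medium. These cultures were yeast carrying a pooled library of tiled 17-residue yeast protein peptides fused downstream of GFP on a plasmid that also expresses Cherry. The protein stability index is the sum of every gate's read frequency times its gate number.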

± gives the uncertainty stated by the source.

FVHSVKKFLRVRIFTKI [SRB4] came in with a protein stability index (doa10∆) of 2.21 ± 0.082, a protein stability index (pdr5∆) of 2.07 ± 0.072, a protein stability index (san1∆) of 1.22 ± 0.12 and a protein stability index (ubr1∆) of 2.07 ± 0.059.
Consider FNTPFANTGGQDKIELS [SNF2], for which the protein stability index runs as follows: (doa10∆) 1.89 ± 0.18; (san1∆) 1.55 ± 0.2; (ubr1∆) 1.87 ± 0.2.
On to FQNLELETEQLSSELDS [SMC2], for which the protein stability index (doa10∆) stood at 2.08 ± 0.12, the protein stability index (pdr5∆) was 2.58 ± 0.11, the protein stability index (san1∆) was determined as 1.55 ± 0.14 and the protein stability index (ubr1∆) worked out at 2.69 ± 0.13.
As to LVSVTSTLQHFQETLDS [MED8], the protein stability index by setting is: (doa10∆) 2.4 ± 0.055; (pdr5∆) 2.7 ± 0.063; (san1∆) 2.43 ± 0.054; (ubr1∆) 2.39 ± 0.048.
LQNLQRIIRKKIFIAVV [RRI2]: the protein stability index came out at 1.21 ± 0.078 (doa10∆), 1.19 ± 0.073 (pdr5∆) and 1.16 ± 0.091 (ubr1∆).
For PQEPKHIQEEEEQDVDM [RPC19], the protein stability index (doa10∆) turned out to be 3.41 ± 0.09, the protein stability index (pdr5∆) is 3.36 ± 0.09, the protein stability index (san1∆) came out at 3.12 ± 0.05 and the protein stability index (ubr1∆) worked out at 3.28 ± 0.056.
In the case of FSMGHIRSSSVSLVAEA [MED4], the protein stability index by setting is: (doa10∆) 1.52 ± 0.078; (pdr5∆) 1.67 ± 0.057; (san1∆) 1.31 ± 0.14; (ubr1∆) 1.69 ± 0.033.
Consider GLLKRGDTVRILDTSQS [SNU114], for which the protein stability index reads like this: (doa10∆) 3.08 ± 0.084; (pdr5∆) 3.21 ± 0.1; (san1∆) 3.15 ± 0.054; (ubr1∆) 2.86 ± 0.1.
The sequence RPYGVGLLIIGYDKSGA [PRE5] returned a protein stability index (doa10∆) of 1.68 ± 0.12, a protein stability index (pdr5∆) of 1.08 ± 0.14 and a protein stability index (ubr1∆) of 1.06 ± 0.12.
In the case of YGLGLIYAGFGRDTTDY [RPN2], the protein stability index was found to be 3.37 ± 0.12 (doa10∆), 3.03 ± 0.1 (pdr5∆), 2.95 ± 0.084 (san1∆) and 3.28 ± 0.088 (ubr1∆).
Take SMIEKGGDWERRNRYKT [RPN7]: the protein stability index reads like this: (doa10∆) 3.01 ± 0.14; (pdr5∆) 3.43 ± 0.22.
In the case of SSEILSYLSNSLDTSAS [YML103C/NUP188], the protein stability index reads like this: (doa10∆) 2.96 ± 0.091; (pdr5∆) 2.7 ± 0.069; (san1∆) 2.25 ± 0.063; (ubr1∆) 2.65 ± 0.055.
For DIWRVAGKFELLDRILP [SNF2] the same measures were 2.37 ± 0.086, 2.65 ± 0.08, 2.02 ± 0.14 and 2.54 ± 0.1.
As for QFTKVIDEPIKSIMDGI [FAS1], the protein stability index worked out at 1.86 ± 0.047 (doa10∆), 2.27 ± 0.078 (pdr5∆), 2.54 ± 0.16 (san1∆) and 1.49 ± 0.072 (ubr1∆).
On to TQIANAGASPMVNTQQP [PRE4], for which the protein stability index is, setting by setting: (doa10∆) 2.94 ± 0.11; (pdr5∆) 3.07 ± 0.09; (san1∆) 2.82 ± 0.075; (ubr1∆) 2.82 ± 0.18.
For SPISDSRDELIRLAKTL [RPN10] the same measures were 1.84 ± 0.095, 1.77 ± 0.084, 2.37 ± 0.16 and 2.24 ± 0.085.
On to ESISQTPISNEQTEGEP [SRP68], for which the protein stability index is, setting by setting: (doa10∆) 3.21 ± 0.1; (pdr5∆) 3.29 ± 0.16; (san1∆) 3.16 ± 0.071; (ubr1∆) 3.19 ± 0.065.
As to FKDVEHISFNFSMLQMA [BRR2], the protein stability index (doa10∆) stood at 1.76 ± 0.076, the protein stability index (pdr5∆) is 1.59 ± 0.056, the protein stability index (san1∆) was 2.33 ± 0.15 and the protein stability index (ubr1∆) came out at 2.03 ± 0.049.
Turning to EMEVDAEGEEVEVKAEI [RPN1], the protein stability index came to 3.48 ± 0.091 (doa10∆), 3.74 ± 0.24 (pdr5∆), 3.55 ± 0.093 (san1∆) and 3.39 ± 0.079 (ubr1∆).
As to KITSPIRSVALNDSNVK [RRP42], the protein stability index is, setting by setting: (doa10∆) 2.6 ± 0.12; (pdr5∆) 2.42 ± 0.11; (san1∆) 2.59 ± 0.1; (ubr1∆) 2.94 ± 0.078.
With MNNQPQGTNSVPNSIGN [SNF5], the protein stability index is, setting by setting: (doa10∆) 2.87 ± 0.074; (pdr5∆) 3.1 ± 0.096; (san1∆) 3.04 ± 0.12; (ubr1∆) 2.92 ± 0.055.
Consider ESGEDEAEFSLRELSCC [RRP46], for which the protein stability index runs as follows: (doa10∆) 3.24 ± 0.05; (pdr5∆) 3.12 ± 0.075; (san1∆) 3.2 ± 0.064; (ubr1∆) 3.16 ± 0.066.
AGKWFDPVLDWRKSDRE [SIR4]: the protein stability index came to 3.17 ± 0.088 (doa10∆), 3.44 ± 0.087 (pdr5∆), 2.71 ± 0.14 (san1∆) and 3.18 ± 0.066 (ubr1∆).
On to LGGDSDEANIEIDPLTG [BRN1], for which the protein stability index is, setting by setting: (doa10∆) 3.05 ± 0.18; (pdr5∆) 3.48 ± 0.27; (san1∆) 2.92 ± 0.18.
On to EDGTFSVLYPDELEDDT [RRP43], for which the protein stability index came out at 3.23 ± 0.086 (doa10∆), 3.1 ± 0.077 (pdr5∆), 3.16 ± 0.061 (san1∆) and 3.11 ± 0.063 (ubr1∆).
For NDNYSSDMENDNLLLNL [REC8] the same measures were 2.9 ± 0.09, 2.96 ± 0.12, 2.82 ± 0.1 and 3.09 ± 0.12.
